Results published in patent US20120316071A1 (published 2012).

B1: Fab VH3-23_IGHD2-21*01>3_IGHJ6*01 H100E/S108P/Y113G (EPG) Y109W & V2-13_IGLJ2*01 (Fab, V domains shown)
VH: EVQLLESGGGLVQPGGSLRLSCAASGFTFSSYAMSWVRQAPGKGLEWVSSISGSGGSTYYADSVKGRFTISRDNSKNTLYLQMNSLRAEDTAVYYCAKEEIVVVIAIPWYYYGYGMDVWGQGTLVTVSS
VL: SSELTQDPAVSVALGQTVRITCQGDSLRSYYASWYQQKPGQAPVLVIYGKNNRPSGIPDRFSGSSSGNTASLTITGAQAEDEADYYCNSRDSSGNHLVVFGGGTKLTVL
notes: Fab; NNK mutant of the EPG heavy chain; CH1 (tags) and lambda CL come from the vectors
B2: Fab VH3-23_IGHD2-21*01>3_IGHJ6*01 H100E/S108P/Y113G/Y111I & V2-13_IGLJ2*01 (Fab, V domains shown)
VH: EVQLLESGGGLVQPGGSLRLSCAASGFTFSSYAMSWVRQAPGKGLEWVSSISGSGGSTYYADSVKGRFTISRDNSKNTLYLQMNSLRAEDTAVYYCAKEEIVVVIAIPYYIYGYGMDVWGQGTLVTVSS
VL: B1 VL
notes: Fab made in E. coli: VH joined to CH1 (with His and Flag tags, plasmid A) and VL to lambda CL (plasmid E); also called EPG Y111I
B3: Fab VH3-23_IGHD2-21*01>3_IGHJ6*01 H100E/S108P/Y113G Y110N & V2-13_IGLJ2*01 (Fab, V domains shown)
VH: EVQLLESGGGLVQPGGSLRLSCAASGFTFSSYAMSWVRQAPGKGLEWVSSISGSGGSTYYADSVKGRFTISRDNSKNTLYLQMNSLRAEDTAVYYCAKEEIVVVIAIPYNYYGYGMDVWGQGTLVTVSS
VL: B1 VL
notes: Tested as Fab made in E. coli: VH joined to CH1 (His and Flag tags), VL joined to lambda CL; also called EPG Y110N
B4: Fab VH3-23_IGHD2-21*01>3_IGHJ6*01 H100E/S108P/Y113G/Y111T & V2-13_IGLJ2*01 (Fab, V domains shown)
VH: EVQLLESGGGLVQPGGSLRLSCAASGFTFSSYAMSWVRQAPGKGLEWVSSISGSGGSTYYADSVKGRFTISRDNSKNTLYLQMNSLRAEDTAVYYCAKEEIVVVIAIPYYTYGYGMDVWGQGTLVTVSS
VL: B1 VL
notes: Fab made in E. coli: VH joined to CH1 (with His and Flag tags, plasmid A) and VL to lambda CL (plasmid E); also called EPG Y111T
B5: Fab VH3-23_IGHD2-21*01>3_IGHJ6*01 H100E/S108P/Y113G Y110H & V2-13_IGLJ2*01 (Fab, V domains shown)
VH: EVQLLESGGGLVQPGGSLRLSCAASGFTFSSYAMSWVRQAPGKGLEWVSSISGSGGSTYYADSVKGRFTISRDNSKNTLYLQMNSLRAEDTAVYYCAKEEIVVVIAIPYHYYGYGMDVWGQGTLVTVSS
VL: B1 VL
notes: Tested as Fab made in E. coli: VH joined to CH1 (His and Flag tags), VL joined to lambda CL; also called EPG Y110H
B6: Fab VH3-23_IGHD2-21*01>3_IGHJ6*01 H100E/S108P/Y113G/Y110R & V2-13_IGLJ2*01 (Fab, V domains shown)
VH: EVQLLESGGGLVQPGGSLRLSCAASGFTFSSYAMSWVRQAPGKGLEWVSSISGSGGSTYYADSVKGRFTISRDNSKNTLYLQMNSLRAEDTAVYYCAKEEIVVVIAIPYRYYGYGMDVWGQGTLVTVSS
VL: B1 VL
notes: Fab made in E. coli: VH joined to CH1 (with His and Flag tags, plasmid A) and VL to lambda CL (plasmid E); also called EPG Y110R
B7: Fab VH3-23_IGHD2-21*01>3_IGHJ6*01 H100E/S108P/Y113G Y110P & V2-13_IGLJ2*01 (Fab, V domains shown)
VH: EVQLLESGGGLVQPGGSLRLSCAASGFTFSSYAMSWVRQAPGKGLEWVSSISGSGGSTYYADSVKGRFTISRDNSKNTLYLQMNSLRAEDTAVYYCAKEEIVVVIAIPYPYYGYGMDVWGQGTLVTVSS
VL: B1 VL
notes: Tested as Fab made in E. coli: VH joined to CH1 (His and Flag tags), VL joined to lambda CL; also called EPG Y110P
B8: Fab VH3-23_IGHD2-21*01>3_IGHJ6*01 H100E/S108P/Y113G Y110S & V2-13_IGLJ2*01 (Fab, V domains shown)
VH: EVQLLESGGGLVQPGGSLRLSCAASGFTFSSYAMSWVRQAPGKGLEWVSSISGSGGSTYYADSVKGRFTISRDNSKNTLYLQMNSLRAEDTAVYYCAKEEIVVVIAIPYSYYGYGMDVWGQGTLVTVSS
VL: B1 VL
notes: Tested as Fab made in E. coli: VH joined to CH1 (His and Flag tags), VL joined to lambda CL; also called EPG Y110S
B9: Fab VH3-23_IGHD2-21*01>3_IGHJ6*01 H100E/S108P/Y113G/Y111N & V2-13_IGLJ2*01 (Fab, V domains shown)
VH: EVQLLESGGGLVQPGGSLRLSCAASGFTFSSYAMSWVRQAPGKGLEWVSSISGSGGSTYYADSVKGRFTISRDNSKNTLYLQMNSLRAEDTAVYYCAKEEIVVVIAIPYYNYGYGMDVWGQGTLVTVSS
VL: B1 VL
notes: Fab made in E. coli: VH joined to CH1 (with His and Flag tags, plasmid A) and VL to lambda CL (plasmid E); also called EPG Y111N
B10: Fab VH3-23_IGHD2-21*01>3_IGHJ6*01 H100E/S108P/Y113G Y109R & V2-13_IGLJ2*01 (Fab, V domains shown)
VH: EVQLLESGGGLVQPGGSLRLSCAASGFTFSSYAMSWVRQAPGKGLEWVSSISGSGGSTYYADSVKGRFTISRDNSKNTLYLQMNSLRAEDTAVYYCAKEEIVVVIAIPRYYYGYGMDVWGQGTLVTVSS
VL: B1 VL
notes: also called EPG Y109R
B11: Fab VH3-23_IGHD2-21*01>3_IGHJ6*01 H100E/S108P/Y113G Y109G & V2-13_IGLJ2*01 (Fab, V domains shown)
VH: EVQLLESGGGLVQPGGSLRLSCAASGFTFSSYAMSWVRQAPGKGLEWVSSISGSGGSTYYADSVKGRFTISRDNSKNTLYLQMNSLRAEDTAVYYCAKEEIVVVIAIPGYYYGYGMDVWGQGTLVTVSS
VL: B1 VL
notes: Tested as Fab made in E. coli: VH joined to CH1 (His and Flag tags), VL joined to lambda CL; also called EPG Y109G

Experiments:
[1] = molecular target: T1, rHuman ErbB2/Fc Chimera, CF (R&D Systems Cat#1129-ER) (human, UniProt P04626 23-652); assay: ECL multispot (MSD), 20 nM Fab;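 also: purified Fab binding to antigens on multispot plates, read by electrochemiluminescence with a TAG-labelled detection antibody, 1 h Fab incubation at 20 °C, signal expressed relative to each well's blank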
T1 construct: Bought recombinant protein; also called human epidermal growth factor 2 receptor; Fc part of the bought chimera not given

[2] = molecular target: T2, rHuman EGF R/Fc Chimera, CF (R&D Systems Cat#344-ER) (human, UniProt P00533 25-645); assay: ECL multispot (MSD), 20 nM Fab;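 also: purified Fab binding to antigens on multispot plates, read by electrochemiluminescence with a TAG-labelled detection antibody, 1 h Fab incubation at 20 °C, signal expressed relative to each well's blank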
T2 construct: Bought recombinant protein; also called epidermal growth factor receptor; Fc part of the bought chimera not given

[3] = molecular target: T3, rHuman P-Cadherin/Fc Chimera, CF (R&D Systems Cat#861-PC) (human, UniProt P22223 108-654); assay: ECL multispot (MSD), 20 nM Fab;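 also: purified Fab binding to antigens on multispot plates, read by electrochemiluminescence with a TAG-labelled detection antibody, 1 h Fab incubation at 20 °C, signal expressed relative to each well's blank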
T3 construct: Bought recombinant protein; Fc part of the bought chimera not given

[4] = molecular target: T4, rHuman Erythropoietin R/Fc Chimera, CF (R&D Systems Cat#963-ER) (human, UniProt P19235 25-250); assay: ECL multispot (MSD), 20 nM Fab;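 also: purified Fab binding to antigens on multispot plates, read by electrochemiluminescence with a TAG-labelled detection antibody, 1 h Fab incubation at 20 °C, signal expressed relative to each well's blank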
T4 construct: Bought recombinant protein; also called EPO R; EPO R/Fc; Fc part of the bought chimera not given
T4 sequence (looked up): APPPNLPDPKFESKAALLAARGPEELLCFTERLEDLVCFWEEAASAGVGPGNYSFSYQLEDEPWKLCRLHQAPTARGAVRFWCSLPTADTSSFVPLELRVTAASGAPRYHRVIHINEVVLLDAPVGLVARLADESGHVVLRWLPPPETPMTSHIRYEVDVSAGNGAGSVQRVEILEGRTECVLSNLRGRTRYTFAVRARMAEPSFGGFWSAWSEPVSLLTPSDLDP

[5] = molecular target: T5, rHuman IGF-1 sR, (IGF-1 sR), CF (R&D Systems Cat#391-GR) (human, UniProt P08069 31-932); assay: ECL multispot (MSD), 20 nM Fab
T5 construct: Bought recombinant soluble receptor; also called insulin-like growth factor-1 soluble receptor

[6] = molecular target: T6, rHuman EGF R/Fc Chimera, CF (R&D Systems Cat#344-ER) (human, UniProt P00533 25-645); assay: ECL (MSD) multispot binding assay, antigen spotted on plate, 20 nM Fab;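 also: purified Fab incubated 1 h at 20 °C on antigen-spotted plate, bound Fab revealed with TAG detection antibody, ECL read, antigen signal divided by same-well blank, ratio ≥4 counted as hit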
T6 construct: Bought recombinant protein; also called epidermal growth factor receptor; Fc part of the bought chimera not given

[7] = molecular target: T7, rHuman P-Cadherin/Fc Chimera, CF (R&D Systems Cat#861-PC) (human, UniProt P22223 108-654); assay: as above
T7 construct: Bought recombinant protein; Fc part of the bought chimera not given

[8] = molecular target: T8, rHuman Erythropoietin R/Fc Chimera, CF (R&D Systems Cat#963-ER) (human, UniProt P19235 25-250); assay: as above
T8 construct: Bought recombinant protein; also called EPO R; EPO R/Fc; Fc part of the bought chimera not given
T8 sequence (looked up): T4 sequence (looked up)

[9] = molecular target: T9, rHuman CD44/Fc Chimera, CF (R&D Systems Cat#3660-CD) (human, UniProt P16070 21-220); assay: as above
T9 construct: Bought recombinant protein; Fc part of the bought chimera not given

[10] = molecular target: T10, rHuman IGF-1 sR, (IGF-1 sR), CF (R&D Systems Cat#391-GR) (human, UniProt P08069 31-932); assay: as above
T10 construct: Bought recombinant soluble receptor; also called insulin-like growth factor-1 soluble receptor

[11] = molecular target: T11, rHuman ErbB2/Fc Chimera, CF (R&D Systems Cat#1129-ER) (human, UniProt P04626 23-652); assay: as above
T11 construct: Bought recombinant protein; also called human epidermal growth factor 2 receptor; Fc part of the bought chimera not given

[12] = molecular target: T12, rHuman Notch-1/Fc Chimera, CF (R&D Systems Cat#3647-TK) (human, UniProt P46531 19-526); assay: as above
T12 construct: Bought recombinant protein; Fc part of the bought chimera not given

[13] = molecular target: T13, Recombinant Human DLL4 (R&D Systems Cat#1506-D4/CF) (human, UniProt Q9NR61 27-524); assay: as above
T13 construct: Bought recombinant protein; also called delta-like protein 4; rHuman DLL4

[14] = molecular target: T14, rHuman ErbB2/Fc Chimera, CF (R&D Systems Cat#1129-ER) (human, UniProt P04626 23-652); assay: ECL multispot (MSD) binding assay, antigens spotted on plate, 20 nM Fab;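 also: fab incubated 1 h at 20 °C on antigen-spotted wells, bound Fab detected by TAG-labelled antibody, ratio of 4 or more over blank counted as a hit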
T14 construct: Bought recombinant protein; also called human epidermal growth factor 2 receptor; Fc part of the bought chimera not given

[15] = molecular target: T15, rHuman Erythropoietin R/Fc Chimera, CF (R&D Systems Cat#963-ER) (human, UniProt P19235 25-250); assay: as above
T15 construct: Bought recombinant protein; also called EPO R; Epo R; Fc part of the bought chimera not given
T15 sequence (looked up): T4 sequence (looked up)

[16] = molecular target: T16, Recombinant Human DLL4 (R&D Systems Cat#1506-D4/CF) (human, UniProt Q9NR61 27-524); assay: as above
T16 construct: Bought recombinant protein; also called delta-like protein 4; rHuman DLL4

[17] = molecular target: T17, rHuman IGF-1 sR, (IGF-1 sR), CF (R&D Systems Cat#391-GR) (human, UniProt P08069 31-932); assay: as above
T17 construct: Bought recombinant soluble receptor; The column head prints only 'IGF-1'; also called insulin-like growth factor-1 soluble receptor

[18] = molecular target: T18, rHuman EGF R/Fc Chimera, CF (R&D Systems Cat#344-ER) (human, UniProt P00533 25-645); assay: as above
T18 construct: Bought recombinant protein; also called epidermal growth factor receptor; Fc part of the bought chimera not given

[19] = molecular target: T19, rHuman Notch-1/Fc Chimera, CF (R&D Systems Cat#3647-TK) (human, UniProt P46531 19-526); assay: as above
T19 construct: Bought recombinant protein; Fc part of the bought chimera not given

[20] = molecular target: T20, rHuman CD44/Fc Chimera, CF (R&D Systems Cat#3660-CD) (human, UniProt P16070 21-220); assay: as above
T20 construct: Bought recombinant protein; Fc part of the bought chimera not given

[21] = molecular target: T21, rHuman P-Cadherin/Fc Chimera, CF (R&D Systems Cat#861-PC) (human, UniProt P22223 108-654); assay: as above
T21 construct: Bought recombinant protein; Fc part of the bought chimera not given

Binder | ECL signal/blank ratio [8] | ECL signal/blank ratio [9] | ECL signal/blank ratio [10] | ECL signal/blank ratio [12] | ECL signal/blank ratio [13] | ECL multispot signal (ratio to blank; column not labelled) [14] | ECL multispot signal (ratio to blank; column not labelled) [15] | ECL multispot signal (ratio to blank; column not labelled) [16] | ECL multispot signal (ratio to blank; column not labelled) [17] | ECL multispot signal (ratio to blank; column not labelled) [18] | ECL multispot signal (ratio to blank; column not labelled) [19] | ECL multispot signal (ratio to blank; column not labelled) [20] | ECL multispot signal (ratio to blank; column not labelled) [21] | other results
B1 | – | – | – | – | – | – | – | – | – | – | – | – | – | ECL signal ratio (column head gives no unit) [1]: 16.1; ECL signal ratio (column head gives no unit) [2]: 11.1; ECL signal ratio (column head gives no unit) [3]: 32; ECL signal ratio (column head gives no unit) [4]: 169; ECL signal ratio (column head gives no unit) [5]: 1.5
B2 | 6.9 | 1.3 | 1 | 1.8 | 1.5 | – | – | – | – | – | – | – | – | ECL signal/blank ratio [6]: 1.9; ECL signal/blank ratio [7]: 1.9; ECL signal/blank ratio [11]: 1.7
B3 | – | – | – | – | – | 1.2 | 1.6 | 1.2 | 0.9 | 0.9 | 1.3 | 0.8 | 1.2 | –
B4 | 38.8 | 1.8 | 1.2 | 2 | 2.2 | – | – | – | – | – | – | – | – | ECL signal/blank ratio [7]: 6.2
B5 | – | – | – | – | – | 2.2 | – | 1.9 | 1.3 | 1.7 | 1.4 | 1.4 | – | –
B6 | 4.8 | 1.3 | 1.4 | 1.6 | 1.8 | – | – | – | – | – | – | – | – | ECL signal/blank ratio [6]: 1.6; ECL signal/blank ratio [11]: 2.1
B7 | – | – | – | – | – | 0.9 | 2.9 | 1.4 | 1.2 | 1.1 | 1.1 | 1.2 | 1.7 | –
B8 | – | – | – | – | – | 1 | 4.5 | 1.2 | 1.1 | 1.3 | 0.8 | 1 | 1.9 | –
B9 | 9.3 | 0.9 | 0.8 | 1.3 | 1.1 | – | – | – | – | – | – | – | – | ECL signal/blank ratio [6]: 1.4; ECL signal/blank ratio [7]: 2.9; ECL signal/blank ratio [11]: 1.5
B10 | – | – | – | – | – | 2 | 30.1 | 1.5 | 1.3 | 1.8 | 1.4 | 1 | 7.4 | –
B11 | – | – | – | – | – | 1.4 | 11.1 | 1.9 | 1.6 | 2 | 1.5 | 1.5 | – | –
